Laboratory results as given in patent US20030119169A1.
No end group written: not given here.

Target: T1, CPP32, bacterially expressed recombinant active enzyme (human), P42574
T1 chain: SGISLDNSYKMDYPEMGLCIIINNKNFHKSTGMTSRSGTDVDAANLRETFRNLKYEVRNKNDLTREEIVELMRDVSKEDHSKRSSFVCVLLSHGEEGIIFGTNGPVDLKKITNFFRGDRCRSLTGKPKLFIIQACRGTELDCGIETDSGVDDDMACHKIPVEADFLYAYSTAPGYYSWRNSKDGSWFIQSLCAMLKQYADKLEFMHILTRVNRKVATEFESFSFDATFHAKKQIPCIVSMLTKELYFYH
Assay: inhibition of hydrolysis of 10 µM DEVD-AMC, continuous fluorometric assay, bacterial lysate, 30 min preincubation
Settings: remark: other sources report otherwise

YVAD-aldehyde [YVAD aldehyde]
Ki: 8.5 µM
